The record followed here is paper doi:10.1101/2025.01.09.632146.

In this assay the target is AtSAR1c-GFP (Arabidopsis thaliana) (UniProt O04834). The assay can be described thus: co-IP.
Chain of UniProt O04834 (O04834 whole entry): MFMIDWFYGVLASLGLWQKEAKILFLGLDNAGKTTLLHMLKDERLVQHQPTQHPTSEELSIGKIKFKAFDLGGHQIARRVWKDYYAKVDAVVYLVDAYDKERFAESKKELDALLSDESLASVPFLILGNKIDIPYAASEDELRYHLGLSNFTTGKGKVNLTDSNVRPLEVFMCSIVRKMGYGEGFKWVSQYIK

“endogenous AtPHF1 (from UniProt Q8GYE0 1-398) (natural protein)” came in with a fold co-immunoprecipitated against AtSAR1b[H74L]-CFP of 4 fold; a fold co-immunoprecipitated against GFP of 3 fold; a fold co-immunoprecipitated against GFP, normalised, Pi deficiency of 30 fold.
